Tests used:
[1] = target: T1, His-Nectin-4 ECD (human, UniProt Q96NY8); assay: BLI, 26C
T1 chain: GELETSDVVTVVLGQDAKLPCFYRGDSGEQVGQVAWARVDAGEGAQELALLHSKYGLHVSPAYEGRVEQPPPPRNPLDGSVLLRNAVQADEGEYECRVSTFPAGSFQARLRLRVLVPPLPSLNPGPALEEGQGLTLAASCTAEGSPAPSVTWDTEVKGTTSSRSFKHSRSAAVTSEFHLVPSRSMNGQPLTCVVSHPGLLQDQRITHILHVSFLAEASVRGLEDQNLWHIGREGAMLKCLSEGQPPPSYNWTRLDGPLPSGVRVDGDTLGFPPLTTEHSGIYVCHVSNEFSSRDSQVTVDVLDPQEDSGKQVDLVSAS

[2] = target: T2, Fc-Nectin-4 IgV (human, UniProt Q96NY8); assay: BLI, 26C, bivalent analyte
T2 chain: T1 chain

- Kd [1]: 5.2 nM
- Kd [2]: 12.9 nM
B1: HA22 (Enfortumab) (antibody, V domains shown)
VH: EVQLVESGGGLVQPGGSLRLSCAASGFTFSSYNMNWVRQAPGKGLEWVSYISSSSSTIYYADSVKGRFTISRDNAKNSLSLQMNSLRDEDTAVYYCARAYYYGMDVWGQGTTVTVSS
VL: DIQMTQSPSSVSASVGDRVTITCRASQGISGWLAWYQQKPGKAPKFLIYAASTLQSGVPSRFSGSGSGTDFTLTISSLQPEDFATYYCQQANSFPPTFGGGTKVEIK
